Assay [1] has as its target T1, LukAB toxoid variant (LukA E323A), recombinant polyhistidine-tagged (S. aureus, UniProt Q2FFA2 28-351; P21224 30-338).
T1 sequence 1: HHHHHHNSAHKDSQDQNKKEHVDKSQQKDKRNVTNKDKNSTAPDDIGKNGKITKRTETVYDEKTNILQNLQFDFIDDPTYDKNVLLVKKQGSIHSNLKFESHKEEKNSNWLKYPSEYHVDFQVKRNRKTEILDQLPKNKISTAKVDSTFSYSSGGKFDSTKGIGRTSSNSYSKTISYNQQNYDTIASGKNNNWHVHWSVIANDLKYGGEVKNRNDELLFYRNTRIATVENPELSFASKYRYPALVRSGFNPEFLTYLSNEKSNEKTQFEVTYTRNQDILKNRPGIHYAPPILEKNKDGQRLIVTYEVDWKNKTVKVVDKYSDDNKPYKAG
T1 sequence 2: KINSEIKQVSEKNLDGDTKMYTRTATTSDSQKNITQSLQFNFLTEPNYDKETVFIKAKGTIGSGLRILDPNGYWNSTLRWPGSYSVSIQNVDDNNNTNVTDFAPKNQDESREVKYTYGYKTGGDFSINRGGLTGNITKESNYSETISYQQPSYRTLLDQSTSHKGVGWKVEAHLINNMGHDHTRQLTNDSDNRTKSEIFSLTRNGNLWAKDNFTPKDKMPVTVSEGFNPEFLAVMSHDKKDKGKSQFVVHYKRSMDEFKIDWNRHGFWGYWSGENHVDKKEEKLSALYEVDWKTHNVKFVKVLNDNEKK
The experiment in a line: BLI, FN3 protein on streptavidin pins, LukAB toxoid at 10 ug/mL.

Assay [2] has as its target T2, Human serum albumin conjugated with biotin (Rockland 009-0633) (human, UniProt P02768 25-609).
T2 construct: also called HSA
The experiment in a line: ELISA, biotinylated HSA on streptavidin plate.

Assay [3] concerns the target T1, LukAB toxoid variant (LukA E323A), …. The experiment in a line: SPR (Biacore T200), single cycle kinetics, 1:1 model.
For assay [4] the target is unchanged. Briefly: SPR (Biacore T200), construct captured via anti-human Fc, LukAB as analyte.
Assay [5] has the same target. Briefly: ELISA, biotinylated toxin on streptavidin plate.

T2 sequence (P02768 25-609 limits assumed): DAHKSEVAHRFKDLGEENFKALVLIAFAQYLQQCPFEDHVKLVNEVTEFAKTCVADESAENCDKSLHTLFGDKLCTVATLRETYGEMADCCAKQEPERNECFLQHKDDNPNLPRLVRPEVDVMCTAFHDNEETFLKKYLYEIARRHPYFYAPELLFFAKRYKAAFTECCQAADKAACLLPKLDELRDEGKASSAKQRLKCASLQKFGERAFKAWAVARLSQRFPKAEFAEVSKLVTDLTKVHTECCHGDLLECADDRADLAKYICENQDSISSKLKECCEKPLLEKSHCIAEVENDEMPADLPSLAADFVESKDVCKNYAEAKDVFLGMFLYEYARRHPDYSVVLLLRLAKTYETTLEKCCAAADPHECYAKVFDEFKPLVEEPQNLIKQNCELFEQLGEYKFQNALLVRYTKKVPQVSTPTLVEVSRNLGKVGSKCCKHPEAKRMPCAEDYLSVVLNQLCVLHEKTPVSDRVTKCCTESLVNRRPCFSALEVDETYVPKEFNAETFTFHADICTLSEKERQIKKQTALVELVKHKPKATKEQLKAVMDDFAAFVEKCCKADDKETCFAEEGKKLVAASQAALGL

B1: Luk17-His-SA (designed binder)
chain: MLPAPKNLVVSRVTEDSARLSWTAPDAAFDSFWITYEEKFYRGEAIVLTVPGSERSYDLTGLKPGTEYKVWIVGVKGGQGSWPLSAIFTTGGHHHHHHGGGLNDIFEAQKIEWHE
For B1, the binding result in assay [1] is “binds”.

B2: Luk1012 Hla binding FN3 domain, polyhistidine-tagged version (designed binder)
chain: LPAPKNLVVSRVTEDSARLSWTAPDAAFDSFFILYVEYSVNGEAIELSVPGSERSYDLTGLKPGTEYDVIIGGVKGGNHSKPLVAFFTT
On to B2, for which the binding result in assay [2] is recorded as “no binding (tested: 1 µM)”.

B3: Luk970 Hla binding FN3 domain, polyhistidine-tagged version (designed binder)
chain: LPAPKNLVVSRVTEDSARLSWNRGLIPFDSFLIQYQESEKVGEAIVLTVPGSERSYDLTGLKLGTEYTVSIYGVGTYYPWWPLSNPLSAIFTT
For B3, the binding result in assay [2] is on record as “no binding (tested: 1 µM)”.

B4: mAb 5133 PRASA A6 HC-L4-AB (Table 1 Construct 6) (bispecific antibody)
heavy: EVQLVETGGGLVKPGGSLRLSCSASRFSFRDYYMTWIRQAPGKGPEWVSHISGSGSTIYYADSVRGRFTISRDNAKSSLYLQMDSLQADDTAVYYCARGGRATSYYWVHWGPGTLVTVSSASTKGPSVFPLAPSSKSTSGGTAALGCLVKDYFPEPVTVSWNSGALTSGVHTFPAVLQSSGLYSLSSVVTVPSSSLGTQTYICNVNHKPSNTKVDKKVEPKSCDKTHTCPPCPAPPVAGPDVFLFPPKPKDTLMISRTPEVTCVVVDVSHEDPEVKFNWYVDGVEVHNAKTKPREEQYNSTYRVVSVLTVLHQDWLNGKEYKCKVSNAALPAPIAKTISKAKGQPREPQVYTLPPSRDELTKNQVSLTCLVKGFYPSDIAVEWESNGQPENNYKTTPPVLDSDGSFFLYSKLTVDKSRWQQGNVFSCSVMHEALHNRFTQKSLSLSPGKGGGGSGGGGSGGGGSGGGGSMLPAPKNLVVSRVTEDSARLSWTAPDAAFDSFWITYEEKFYRGEAIVLTVPGSERSYDLTGLKPGTEYKVWIVGVKGGQGSWPLSAIFTT
light: EIVLTQSPATLSLSPGERATLSCRASQSVSGYLGWYQQKPGQAPRLLIYGASSRATGIPDRFSGSGSGTDFTLTISRLEPEDFAVYYCQQYGSSPLTFGGGTKLEIKRTVAAPSVFIFPPSDEQLKSGTASVVCLLNNFYPREAKVQWKVDNALQSGNSQESVTEQDSKDSTYSLSSTLTLSKADYEKHKVYACEVTHQGLSSPVTKSFNRGEC
notes: also called CR5133 PRASA A6 HC-L4-AB
Consider B4, for which the equilibrium dissociation constant (Kd) in assay [3] was 70 pM.

B5: mAb 5133 PRASA A6 HC-L4-E (Table 1 Construct 15) (bispecific antibody)
heavy: EVQLVETGGGLVKPGGSLRLSCSASRFSFRDYYMTWIRQAPGKGPEWVSHISGSGSTIYYADSVRGRFTISRDNAKSSLYLQMDSLQADDTAVYYCARGGRATSYYWVHWGPGTLVTVSSASTKGPSVFPLAPSSKSTSGGTAALGCLVKDYFPEPVTVSWNSGALTSGVHTFPAVLQSSGLYSLSSVVTVPSSSLGTQTYICNVNHKPSNTKVDKKVEPKSCDKTHTCPPCPAPPVAGPDVFLFPPKPKDTLMISRTPEVTCVVVDVSHEDPEVKFNWYVDGVEVHNAKTKPREEQYNSTYRVVSVLTVLHQDWLNGKEYKCKVSNAALPAPIAKTISKAKGQPREPQVYTLPPSRDELTKNQVSLTCLVKGFYPSDIAVEWESNGQPENNYKTTPPVLDSDGSFFLYSKLTVDKSRWQQGNVFSCSVMHEALHNRFTQKSLSLSPGKGGGGSGGGGSGGGGSGGGGSMLPAPKNLVVSRVTEDSARLSWTAPDAAFDSFHIEYAEPWVWGEAIVLTVPGSERSYDLTGLKPGTEYVVFIGGVKGGHNSTPLSAIFTT
light: B4 light
notes: also called CR5133 PRASA A6 HC-L4-E
On to B5, for which the binding result in assay [4] is reported as “no binding (tested: 100 nM)”.

B6: 3×3 linker variant of Construct 11 (bispecific antibody)
heavy: EVQLVETGGGLVKPGGSLRLSCSASRFSFRDYYMTWIRQAPGKGPEWVSHISGSGSTIYYADSVRGRFTISRDNAKSSLYLQMDSLQADDTAVYYCARGGRATSYYWVHWGPGTLVTVSSASTKGPSVFPLAPSSKSTSGGTAALGCLVKDYFPEPVTVSWNSGALTSGVHTFPAVLQSSGLYSLSSVVTVPSSSLGTQTYICNVNHKPSNTKVDKKVEPKSCDKTHTCPPCPAPPVAGPDVFLFPPKPKDTLMISRTPEVTCVVVDVSHEDPEVKFNWYVDGVEVHNAKTKPREEQYNSTYRVVSVLTVLHQDWLNGKEYKCKVSNAALPAPIAKTISKAKGQPREPQVYTLPPSRDELTKNQVSLTCLVKGFYPSDIAVEWESNGQPENNYKTTPPVLDSDGSFFLYSKLTVDKSRWQQGNVFSCSVMHEALHNRFTQKSLSLSPGKGGGGSGGGGSGGGGSMLPAPKNLVVSRVTEDSARLSWTAPDAAFDSFHIEYAEPWVWGEAIVLTVPGSERSYDLTGLKPGTEYVVFIGGVKGGHNSTPLSAIFTTGGGGSGGGGSGGGGSMLPAPKNLVVSRVTEDSARLSWTAPDAAFDSFWITYEEKFYRGEAIVLTVPGSERSYDLTGLKPGTEYKVWIVGVKGGQGSWPLSAIFTT
light: B4 light
With B6, the binding result in assay [5] is recorded as “binds”.

B7: 3×4 linker variant of Construct 11 (bispecific antibody)
heavy: EVQLVETGGGLVKPGGSLRLSCSASRFSFRDYYMTWIRQAPGKGPEWVSHISGSGSTIYYADSVRGRFTISRDNAKSSLYLQMDSLQADDTAVYYCARGGRATSYYWVHWGPGTLVTVSSASTKGPSVFPLAPSSKSTSGGTAALGCLVKDYFPEPVTVSWNSGALTSGVHTFPAVLQSSGLYSLSSVVTVPSSSLGTQTYICNVNHKPSNTKVDKKVEPKSCDKTHTCPPCPAPPVAGPDVFLFPPKPKDTLMISRTPEVTCVVVDVSHEDPEVKFNWYVDGVEVHNAKTKPREEQYNSTYRVVSVLTVLHQDWLNGKEYKCKVSNAALPAPIAKTISKAKGQPREPQVYTLPPSRDELTKNQVSLTCLVKGFYPSDIAVEWESNGQPENNYKTTPPVLDSDGSFFLYSKLTVDKSRWQQGNVFSCSVMHEALHNRFTQKSLSLSPGKGGGGSGGGGSGGGGSMLPAPKNLVVSRVTEDSARLSWTAPDAAFDSFHIEYAEPWVWGEAIVLTVPGSERSYDLTGLKPGTEYVVFIGGVKGGHNSTPLSAIFTTGGGGSGGGGSGGGGSGGGGSMLPAPKNLVVSRVTEDSARLSWTAPDAAFDSFWITYEEKFYRGEAIVLTVPGSERSYDLTGLKPGTEYKVWIVGVKGGQGSWPLSAIFTT
light: B4 light
Take B7: the binding result in assay [5] was “binds”.

B8: mAb 5133 PRASA A6 (CR5133 PRASA A6; Table 1 Construct 4) (antibody)
heavy: EVQLVETGGGLVKPGGSLRLSCSASRFSFRDYYMTWIRQAPGKGPEWVSHISGSGSTIYYADSVRGRFTISRDNAKSSLYLQMDSLQADDTAVYYCARGGRATSYYWVHWGPGTLVTVSSASTKGPSVFPLAPSSKSTSGGTAALGCLVKDYFPEPVTVSWNSGALTSGVHTFPAVLQSSGLYSLSSVVTVPSSSLGTQTYICNVNHKPSNTKVDKKVEPKSCDKTHTCPPCPAPPVAGPDVFLFPPKPKDTLMISRTPEVTCVVVDVSHEDPEVKFNWYVDGVEVHNAKTKPREEQYNSTYRVVSVLTVLHQDWLNGKEYKCKVSNAALPAPIAKTISKAKGQPREPQVYTLPPSRDELTKNQVSLTCLVKGFYPSDIAVEWESNGQPENNYKTTPPVLDSDGSFFLYSKLTVDKSRWQQGNVFSCSVMHEALHNRFTQKSLSLSPGK
light: B4 light
notes: no FN3 domains
As for B8, the binding result in assay [4] is reported as “no binding (tested: 100 nM)”.

B9: Luk982 Hla binding FN3 domain, polyhistidine-tagged version (designed binder)
chain: LPAPKNLVVSRVTEDSARLSWTAPDAAFDSFAIGYPEYHDAGEAIHLFVPGSERSYDLTGLKPGTEYVVAIRGVKGGHASEPLHAHFTT
As for B9, in assay [2], the binding result was “no binding (tested: 1 µM)”.

B10: Luk969 Hla binding FN3 domain, polyhistidine-tagged version (designed binder)
chain: LPAPKNLVVSRVTEDSARLSWNSEIAEQFFFDSFLIQYQESEKVGEAIVLTVPGSERSYDLTGLKPGTEYTVSIYGVWGHWDWYWKTSNPLSAIFTT
For B10, the binding result in assay [2] is “no binding (tested: 1 µM)”.

B11: Luk967 Hla binding FN3 domain, polyhistidine-tagged version (designed binder)
chain: LPAPKNLVVSRVTEDSARLSWEANAWDDVNFDSFLIQYQESEKVGEAIVLTVPGSERSYDLTGLKPGTEYTVSIYGVWNQTHYRWPSNPLSAIFTT
Regarding B11, the binding result in assay [2] was “no binding (tested: 1 µM)”.
